Data on 20 molecules can be found in US20260139007A1 (SANFORD BURNHAM PREBYS MEDICAL DISCOVERY INSTITUTE, published 2026).

In experiment [1] the target is T1, EphA4 Fc (human EphA4 Fc, #CJ75, Novoprotein, or mouse EphA4 Fc, #641-A4, R&D Systems/BioTechne) (human or mouse, UniProt P54764 20-547).
T1 construct: extracellular domain; bought reagents; also called EphA4 extracellular domain fused to the Fc portion of an antibody; not shown: Fc portion of an antibody
In words: competition ELISA, inhibition of ephrin-A5 AP binding to immobilized EphA4 Fc. In general terms: In an ELISA, binding on a coated surface is turned into a signal by an enzyme label.

In experiment [2] the target is FLAG-tagged EphA4 stably expressed in immortalized cells (HEK-EphA4 cells). Kind of experiment: cell-based or functional assay.
In experiment [3] the target is T1, EphA4 Fc (human EphA4 Fc, #CJ75, …). In words: competition ELISA, inhibition of ephrin-A5 AP binding to immobilized EphA4 Fc; 0 time point, compound diluted in mouse plasma in vitro (apparent IC50).
The target is the same in experiment [4]. Kind of experiment: competition ELISA, ephrin-A5 AP on immobilized EphA4 Fc, same experiments.
Experiment [5] shares this target. Kind of experiment: competition ELISA, inhibition of ephrin-A5 AP binding to immobilized EphA4 Fc, with serum albumin (40 mg/mL HSA by the text; the cell has no footnote).
The target is the same in experiment [6]. Kind of experiment: competition ELISA, inhibition of ephrin-A5 AP binding to immobilized EphA4 Fc, with 40 mg/mL delipidated HSA.
Experiment [7] has the same target. Kind of experiment: competition ELISA, ephrin-A5 AP on immobilized EphA4 Fc.

Numbered stars: 1 amine (or outer) side, 2 acyl side, 3 side chain; on linkers, the order of the positions; unused ones are H or OH. Bridge positions count the residues as written; N and C are the ends. Square brackets hold non-standard residues; d marks the D form. Side chains are listed from the residue outwards. Ends that are not written are not given here. * marks the point of attachment. γGlu = O=C(O)[C@H](CCC(=O)[*:2])N[*:1]; βAsp = O=C(O)[C@H](CC(=O)[*:2])N[*:1]; Palmitoyl = CCCCCCCCCCCCCCCC(=O)*; Lauroyl = CCCCCCCCCCCC(=O)*; Octanoyl = CCCCCCCC(=O)*; Dodecyl = CCCCCCCCCCCC*; βAla = NCCC(=O)O

As usually defined, the IC50 is the point on the concentration scale where inhibition reaches its midpoint.

T1 sequence (P54764 20-547): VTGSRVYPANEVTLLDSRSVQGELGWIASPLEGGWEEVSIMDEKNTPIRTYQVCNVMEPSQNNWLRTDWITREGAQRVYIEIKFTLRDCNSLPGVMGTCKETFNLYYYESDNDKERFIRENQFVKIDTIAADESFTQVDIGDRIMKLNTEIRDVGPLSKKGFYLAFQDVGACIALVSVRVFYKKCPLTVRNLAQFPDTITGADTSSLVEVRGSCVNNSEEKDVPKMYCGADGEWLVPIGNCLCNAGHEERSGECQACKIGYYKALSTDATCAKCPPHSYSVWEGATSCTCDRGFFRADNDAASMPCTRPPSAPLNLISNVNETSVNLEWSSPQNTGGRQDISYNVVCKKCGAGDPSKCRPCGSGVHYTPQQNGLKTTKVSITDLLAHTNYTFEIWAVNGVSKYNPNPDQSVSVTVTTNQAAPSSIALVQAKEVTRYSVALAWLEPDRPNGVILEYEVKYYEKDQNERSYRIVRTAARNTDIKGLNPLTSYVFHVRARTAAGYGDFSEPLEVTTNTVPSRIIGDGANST

B1: APY-d3-PEG1 (peptide)
peptide: XPYCVYRXSWSCXXK
modifications: β-alanine at 1 and 8; disulfide bond Cys4-Cys12 (cyclic); 30 kDa methoxy-PEG joined through linker1 at the C-terminus (amide formation with 30 kDa methoxy-PEG succinimidyl carboxymethyl ester on precursor 1, βAPYCVYRβASWSCβAβAK-NH2, SEQ ID NO: 36)
notes: also called βAPYCVYRβASWSC-linker1-PEG
In experiment [1], B1 returned an IC50 of 180 nM.

B2: APY-d3-PEG4 (peptide)
peptide: XPYCVYRXSWSCXXX
modifications: β-alanine at 1 and 8; disulfide bond Cys4-Cys12 (Cyc (4,12)); three 6-aminohexanoic acid (Ahx) residues and propargyl-glycine (Pra) after Cys12; 30 kDa methoxy-PEG on Pra through a triazole (click chemistry); free C-terminal acid (-OH)
For the molecule B2, in experiment [2], the “IC50 for inhibition of EphA4 tyrosine phosphorylation (pY596) induced by ephrin-A5 Fc in HEK-EphA4 cells, ELISA of cell lysates” value is approximately 700 nM and the “fold loss of potency against APY-d3, EphA4 tyrosine phosphorylation in HEK-EphA4 cells” value is approximately 2.5 fold.

B3: compound 19 (peptide)
peptide: XPYCVYRXSWSCGGKG
modifications: β-alanine at 1 and 8; palmitoyl-γGlu-γGlu on the side chain of the Lys of the C-terminal GGKG; C-terminal amide; disulfide bond Cys4-Cys12 (cyclic)
notes: also called peptide 19
In experiment [1], B3 returned a concentration for half-maximal inhibition (IC50) of 160 nM.

B4: compound 20 (peptide)
peptide: [βAla]PYCVYR[βAla]SWSCGGGSK([γGlu-γGlu-Palmitoyl])G-NH2
modifications: disulfide 4-12; N-terminus assumed
SMILES: CCCCCCCCCCCCCCCC(=O)N[C@@H](CCC(=O)N[C@@H](CCC(=O)NCCCC[C@H](NC(=O)[C@H](CO)NC(=O)CNC(=O)CNC(=O)CNC(=O)[C@@H]1CSSC[C@H](NC(=O)[C@H](Cc2ccc(O)cc2)NC(=O)[C@@H]2CCCN2C(=O)CCN)C(=O)N[C@@H](C(C)C)C(=O)N[C@@H](Cc2ccc(O)cc2)C(=O)N[C@@H](CCCNC(=N)N)C(=O)NCCC(=O)N[C@@H](CO)C(=O)N[C@@H](Cc2c[nH]c3ccccc23)C(=O)N[C@@H](CO)C(=O)N1)C(=O)NCC(N)=O)C(=O)O)C(=O)O
notes: also called peptide 20
In experiment [1], B4 had a 50% inhibitory concentration (IC50) of 190 nM.

B5: compound 14 (peptide)
peptide: XPYCVYRXSWSCGGKG
modifications: β-alanine at 1 and 8; lauroyl-γ-glutamic acid on the side chain of the Lys of the C-terminal GGKG; C-terminal amide; disulfide bond Cys4-Cys12 (cyclic)
notes: also called peptide 14
Take B5: the IC50 in experiment [3] came out at 81 nM.

B6: compound 1 (peptide)
peptide: APYCVYK[βAla]SWSC-NH2
modifications: disulfide 4-12; N-terminus assumed
SMILES: CC(C)[C@@H]1NC(=O)[C@@H](NC(=O)[C@H](Cc2ccc(O)cc2)NC(=O)[C@@H]2CCCN2C(=O)[C@H](C)N)CSSC[C@@H](C(N)=O)NC(=O)[C@H](CO)NC(=O)[C@H](Cc2c[nH]c3ccccc23)NC(=O)[C@H](CO)NC(=O)CCNC(=O)[C@H](CCCCN)NC(=O)[C@H](Cc2ccc(O)cc2)NC1=O
notes: also called peptide 1; APYCVYKβASWSC-NH2
Consider B6, for which the “fold decrease in potency (IC50) against APY-d2” value in experiment [4] is approximately 2 fold. The values for the half-inhibitory concentration (IC50) in experiment [1] and in experiment [5] were 67 nM and 55 nM, respectively.

B7: compound 6 (peptide)
peptide: [βAla]PYCVYK([Gly-octanyl])[βAla]SWSC-NH2
modifications: disulfide 4-12
notes: also called peptide 6; βAPYCVYK(octanyl-G)βASWSC-NH2
Consider B7, for which the IC50 in experiment [1] was found to be 42 nM; in experiment [6] it was 130 nM.

B8: APY-d3-PEG2 (peptide)
peptide: XPYCVYRXSWSCXXK
modifications: β-alanine at 1 and 8; disulfide bond Cys4-Cys12 (cyclic); 30 kDa methoxy-PEG joined through linker2 at the C-terminus (amide formation with 30 kDa methoxy-PEG-(CH2)5COO-NHS on precursor 1, βAPYCVYRβASWSCβAβAK-NH2, SEQ ID NO: 36)
notes: also called βAPYCVYRβASWSC-linker2-PEG
B8 returned a concentration for half-maximal inhibition (IC50) in experiment [1] of 83 nM.

B9: compound 11 (peptide)
peptide: [βAla]PYCVYK([γGlu-Lauroyl])[βAla]SWSC-NH2
modifications: disulfide 4-12; N-terminus assumed
SMILES: CCCCCCCCCCCC(=O)N[C@@H](CCC(=O)NCCCC[C@@H]1NC(=O)[C@H](Cc2ccc(O)cc2)NC(=O)[C@H](C(C)C)NC(=O)[C@@H](NC(=O)[C@H](Cc2ccc(O)cc2)NC(=O)[C@@H]2CCCN2C(=O)CCN)CSSC[C@@H](C(N)=O)NC(=O)[C@H](CO)NC(=O)[C@H](Cc2c[nH]c3ccccc23)NC(=O)[C@H](CO)NC(=O)CCNC1=O)C(=O)O
notes: also called peptide 11; βAPYCVYK(lauroyl-γE)βASWSC-NH2
Turning to B9, in experiment [1], the half-inhibitory concentration (IC50) was 84 nM.

B10: compound 7 (peptide)
peptide: XPYCVYRXSWSCGGKG
modifications: β-alanine at 1 and 8; octanoyl on the side chain of the Lys of the C-terminal GGKG; C-terminal amide; disulfide bond Cys4-Cys12 (cyclic)
notes: also called peptide 7
With B10, the IC50 in experiment [1] came out at 34 nM; in experiment [6] it was 110 nM.

B11: compound 17 (peptide)
peptide: [βAla]PYCVYK([γGlu-Palmitoyl])[βAla]SWSC-NH2
modifications: disulfide 4-12; N-terminus assumed
SMILES: CCCCCCCCCCCCCCCC(=O)N[C@@H](CCC(=O)NCCCC[C@@H]1NC(=O)[C@H](Cc2ccc(O)cc2)NC(=O)[C@H](C(C)C)NC(=O)[C@@H](NC(=O)[C@H](Cc2ccc(O)cc2)NC(=O)[C@@H]2CCCN2C(=O)CCN)CSSC[C@@H](C(N)=O)NC(=O)[C@H](CO)NC(=O)[C@H](Cc2c[nH]c3ccccc23)NC(=O)[C@H](CO)NC(=O)CCNC1=O)C(=O)O
notes: also called peptide 17; βAPYCVYK(palmitoyl-γE)βASWSC-NH2
For B11, the IC50 in experiment [1] amounted to 2300 nM.

B12: compound 5 (peptide)
peptide: [βAla]PYCVYK(Octanoyl)[βAla]SWSCGGRG-NH2
modifications: disulfide 4-12; N-terminus assumed
SMILES: CCCCCCCC(=O)NCCCC[C@@H]1NC(=O)[C@H](Cc2ccc(O)cc2)NC(=O)[C@H](C(C)C)NC(=O)[C@@H](NC(=O)[C@H](Cc2ccc(O)cc2)NC(=O)[C@@H]2CCCN2C(=O)CCN)CSSC[C@@H](C(=O)NCC(=O)NCC(=O)N[C@@H](CCCNC(=N)N)C(=O)NCC(N)=O)NC(=O)[C@H](CO)NC(=O)[C@H](Cc2c[nH]c3ccccc23)NC(=O)[C@H](CO)NC(=O)CCNC1=O
notes: also called peptide 5
On to B12, for which the IC50 in experiment [1] came out at 26 nM; in experiment [6], 75 nM.

B13: compound 4 (peptide)
peptide: [βAla]PYCVYK(Octanoyl)[βAla]SWSC-NH2
modifications: disulfide 4-12; N-terminus assumed
SMILES: CCCCCCCC(=O)NCCCC[C@@H]1NC(=O)[C@H](Cc2ccc(O)cc2)NC(=O)[C@H](C(C)C)NC(=O)[C@@H](NC(=O)[C@H](Cc2ccc(O)cc2)NC(=O)[C@@H]2CCCN2C(=O)CCN)CSSC[C@@H](C(N)=O)NC(=O)[C@H](CO)NC(=O)[C@H](Cc2c[nH]c3ccccc23)NC(=O)[C@H](CO)NC(=O)CCNC1=O
notes: also called peptide 4; βAPYCVYK(octanoyl)βASWSC-NH2
Take B13: the half-maximal inhibitory concentration (IC50) in experiment [1] was 34 nM; in experiment [6], 100 nM.

B14: compound 10 (peptide)
peptide: [βAla]PYCVYK([βAsp-Lauroyl])[βAla]SWSC-NH2
modifications: disulfide 4-12; N-terminus assumed
SMILES: CCCCCCCCCCCC(=O)N[C@@H](CC(=O)NCCCC[C@@H]1NC(=O)[C@H](Cc2ccc(O)cc2)NC(=O)[C@H](C(C)C)NC(=O)[C@@H](NC(=O)[C@H](Cc2ccc(O)cc2)NC(=O)[C@@H]2CCCN2C(=O)CCN)CSSC[C@@H](C(N)=O)NC(=O)[C@H](CO)NC(=O)[C@H](Cc2c[nH]c3ccccc23)NC(=O)[C@H](CO)NC(=O)CCNC1=O)C(=O)O
notes: also called peptide 10; βAPYCVYK(lauroyl-βD)βASWSC-NH2
B14 returned an IC50 in experiment [1] of 110 nM.

B15: APY-d3-PEG3 (peptide)
peptide: XPYCVYRXSWSCXK
modifications: β-alanine at 1 and 8; disulfide bond Cys4-Cys12 (cyclic); 30 kDa methoxy-PEG joined at the C-terminus through an oxime linkage (APY-d3-βAla-glyoxyl with methoxy-PEG-CONH(CH2)2-ONH2)
notes: also called βAPYCVYRβASWSC-linker3-PEG
In experiment [1], B15 gave an IC50 of 15 nM.

B16: compound 12 (peptide)
peptide: XPYCVYRXSWSCGGKG
modifications: β-alanine at 1 and 8; lauroyl on the side chain of the Lys of the C-terminal GGKG; C-terminal amide; disulfide bond Cys4-Cys12 (cyclic)
notes: also called peptide 12
B16: the values for the IC50 in experiment [1] and in experiment [6] were 240 nM and 920 nM, respectively.

B17: compound 8 (peptide)
peptide: [βAla]PYCVYK(Lauroyl)[βAla]SWSC-NH2
modifications: disulfide 4-12; N-terminus assumed
SMILES: CCCCCCCCCCCC(=O)NCCCC[C@@H]1NC(=O)[C@H](Cc2ccc(O)cc2)NC(=O)[C@H](C(C)C)NC(=O)[C@@H](NC(=O)[C@H](Cc2ccc(O)cc2)NC(=O)[C@@H]2CCCN2C(=O)CCN)CSSC[C@@H](C(N)=O)NC(=O)[C@H](CO)NC(=O)[C@H](Cc2c[nH]c3ccccc23)NC(=O)[C@H](CO)NC(=O)CCNC1=O
notes: also called peptide 8; βAPYCVYK(lauroyl)βASWSC-NH2
As to B17, in experiment [7], the “fold decrease in potency against APY-d3 similarly modified with a C8 lipid” value is more than 10 fold. This molecule had an IC50 in experiment [1] of 390 nM.

B18: compound 3 (peptide)
peptide: [βAla]PYCVYK[βAla]SWSC-NH2
modifications: disulfide 4-12; N-terminus assumed
SMILES: CC(C)[C@@H]1NC(=O)[C@@H](NC(=O)[C@H](Cc2ccc(O)cc2)NC(=O)[C@@H]2CCCN2C(=O)CCN)CSSC[C@@H](C(N)=O)NC(=O)[C@H](CO)NC(=O)[C@H](Cc2c[nH]c3ccccc23)NC(=O)[C@H](CO)NC(=O)CCNC(=O)[C@H](CCCCN)NC(=O)[C@H](Cc2ccc(O)cc2)NC1=O
notes: also called peptide 3; βAPYCVYKβASWSC-NH2
On to B18, for which the “fold decrease in potency (IC50) against APY-d3” value in experiment [4] is approximately 2 fold. Besides, the IC50 in experiment [1] is 70 nM.

B19: compound 16 (peptide)
peptide: XPYCVYRXSWSCGGKG
modifications: β-alanine at 1 and 8; myristoyl-γGlu-γGlu on the side chain of the Lys of the C-terminal GGKG; C-terminal amide; disulfide bond Cys4-Cys12 (cyclic)
notes: also called peptide 16
With B19, the concentration for half-maximal inhibition (IC50) was 77 nM in experiment [1] and 1370 nM in experiment [6].

B20: compound 9 (peptide)
peptide: [βAla]PYCVYK([Gly-Dodecyl])[βAla]SWSC-NH2
modifications: disulfide 4-12
notes: also called peptide 9; βAPYCVYK(lauryl-G)βASWSC-NH2
With B20, the “fold decrease in potency against APY-d3 similarly modified with a C8 lipid” value in experiment [7] was more than 10 fold. The molecule also showed a 50% inhibitory concentration (IC50) in experiment [1] of 590 nM.
